Tests used:
recombinant human RSPO2 = recombinant human RSPO2 (human, UniProt Q6UXX9 22-243); assay: cell-based or functional assay
recombinant human RSPO3 = molecular target: T1, recombinant human RSPO3 (human, UniProt Q9BXY4 22-272); assay: cell-based or functional assay
T1 sequence: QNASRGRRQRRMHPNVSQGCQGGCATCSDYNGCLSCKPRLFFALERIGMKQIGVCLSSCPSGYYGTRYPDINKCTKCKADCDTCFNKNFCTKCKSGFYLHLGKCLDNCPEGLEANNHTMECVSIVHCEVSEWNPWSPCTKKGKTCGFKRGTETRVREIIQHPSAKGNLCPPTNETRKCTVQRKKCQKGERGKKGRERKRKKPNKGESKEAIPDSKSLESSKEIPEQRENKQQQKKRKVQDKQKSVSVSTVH

cynomolgus RSPO3 = molecular target: T2, cynomolgus RSPO3 (cynomolgus, UniProt A0A2K5UTQ7 22-273); assay: cell-based or functional assay
T2 sequence: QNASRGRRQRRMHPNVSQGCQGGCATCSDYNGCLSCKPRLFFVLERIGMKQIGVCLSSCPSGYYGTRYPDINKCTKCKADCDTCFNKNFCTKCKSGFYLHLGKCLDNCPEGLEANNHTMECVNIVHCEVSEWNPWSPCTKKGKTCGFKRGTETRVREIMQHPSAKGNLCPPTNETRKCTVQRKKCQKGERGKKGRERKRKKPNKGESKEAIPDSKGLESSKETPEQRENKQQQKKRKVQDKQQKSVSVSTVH

mouse RSPO3 = molecular target: T3, mouse RSPO3 (mouse, UniProt Q2TJ95 22-277, limits assumed); assay: cell-based or functional assay
T3 sequence (looked up): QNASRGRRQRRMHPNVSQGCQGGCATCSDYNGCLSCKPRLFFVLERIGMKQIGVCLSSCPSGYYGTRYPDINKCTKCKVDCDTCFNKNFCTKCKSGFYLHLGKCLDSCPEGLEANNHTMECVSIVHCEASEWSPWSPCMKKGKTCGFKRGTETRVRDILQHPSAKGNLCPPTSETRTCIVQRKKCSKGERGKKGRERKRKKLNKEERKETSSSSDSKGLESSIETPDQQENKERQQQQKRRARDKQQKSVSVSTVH

cynomolgus RSPO2 = cynomolgus RSPO2 (cynomolgus, UniProt G7PCH9 22-243); assay: cell-based or functional assay
Sequence of cynomolgus RSPO2 (G7PCH9 entry or part of it): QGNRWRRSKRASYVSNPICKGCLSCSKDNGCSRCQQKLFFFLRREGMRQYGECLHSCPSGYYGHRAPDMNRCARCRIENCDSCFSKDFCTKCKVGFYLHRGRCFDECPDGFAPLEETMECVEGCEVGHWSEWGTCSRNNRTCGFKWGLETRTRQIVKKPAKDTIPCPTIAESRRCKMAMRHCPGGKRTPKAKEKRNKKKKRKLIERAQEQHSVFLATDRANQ

mouse RSPO2 = mouse RSPO2 (mouse, UniProt Q8BFU0 22-205, limits assumed); assay: cell-based or functional assay
Sequence of mouse RSPO2 (Q8BFU0 22-205 limits assumed): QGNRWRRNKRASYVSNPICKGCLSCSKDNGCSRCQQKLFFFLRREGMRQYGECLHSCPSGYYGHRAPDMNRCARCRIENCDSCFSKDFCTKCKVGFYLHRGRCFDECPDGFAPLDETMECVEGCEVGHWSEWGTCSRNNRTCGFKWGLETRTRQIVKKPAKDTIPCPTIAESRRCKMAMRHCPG

[1] = molecular target: T4, human RSPO3 with C-terminal HA tag, stably expressed in 293 cells (human, UniProt Q9BXY4 22-272); assay: IHC, FFPE 293 cell pellet, RSPO3 Hi
T4 construct: Whole open reading frame expressed in HEK-293 cells (high, medium, low); FFPE pellets; also called hRSPO3; RSPO3 Hi
T4 sequence: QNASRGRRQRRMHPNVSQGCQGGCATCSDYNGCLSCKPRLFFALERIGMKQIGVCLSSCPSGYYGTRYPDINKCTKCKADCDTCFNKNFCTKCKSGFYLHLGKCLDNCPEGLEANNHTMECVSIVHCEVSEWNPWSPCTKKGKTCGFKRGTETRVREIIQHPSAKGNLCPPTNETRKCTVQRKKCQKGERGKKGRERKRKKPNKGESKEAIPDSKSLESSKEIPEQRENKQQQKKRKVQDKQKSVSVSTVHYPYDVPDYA

[2] = molecular target: T4, human RSPO3 with C-terminal HA tag, …; assay: IHC, FFPE 293 cell pellet, RSPO3 Low
[3] = molecular target: T4, human RSPO3 with C-terminal HA tag, …; assay: IHC, FFPE 293 cell pellet, RSPO3 Med
[4] = molecular target: T5, human RSPO1 with C-terminal HA tag, stably expressed in 293 cells (human, UniProt Q2MKA7 21-263); assay: IHC, FFPE 293 cell pellet, RSPO1 Hi; - = not significant staining
T5 construct: also called hRSPO1; RSPO1 Hi
T5 sequence (Q2MKA7 other isoform, or with tags, fused parts or gaps limits assumed): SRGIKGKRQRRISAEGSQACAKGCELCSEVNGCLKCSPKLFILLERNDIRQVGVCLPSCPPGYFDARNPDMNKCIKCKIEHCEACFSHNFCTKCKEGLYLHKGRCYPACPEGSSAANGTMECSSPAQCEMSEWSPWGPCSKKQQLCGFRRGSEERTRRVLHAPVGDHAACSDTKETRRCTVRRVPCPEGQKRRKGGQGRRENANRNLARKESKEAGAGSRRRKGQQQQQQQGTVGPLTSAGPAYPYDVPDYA

[5] = molecular target: T6, human RSPO2 with C-terminal HA tag, stably expressed in 293 cells (human, UniProt Q6UXX9 22-243); assay: IHC, FFPE 293 cell pellet, RSPO2 Hi; - = not significant staining
T6 construct: Whole open reading frame was expressed from a lentiviral vector in HEK-293 cells sorted for high, medium or low expression; formalin-fixed paraffin-embedded pellets; also called hRSPO2; RSPO2 Hi
T6 sequence (Q6UXX9 other isoform, or with tags, fused parts or gaps): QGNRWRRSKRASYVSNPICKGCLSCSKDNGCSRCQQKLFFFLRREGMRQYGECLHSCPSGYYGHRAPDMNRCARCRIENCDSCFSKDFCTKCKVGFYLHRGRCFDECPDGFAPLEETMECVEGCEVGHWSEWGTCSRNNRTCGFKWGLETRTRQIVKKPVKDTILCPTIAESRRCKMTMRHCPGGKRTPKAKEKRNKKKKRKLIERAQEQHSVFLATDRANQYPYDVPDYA

[6] = molecular target: T7, human RSPO4 with C-terminal HA tag, stably expressed in 293 cells (human, UniProt Q2I0M5 20-234); assay: IHC, FFPE 293 cell pellet, RSPO4 Hi; - = not significant staining
T7 construct: also called hRSPO4; RSPO4 Hi
T7 sequence (Q2I0M5 other isoform, or with tags, fused parts or gaps limits assumed): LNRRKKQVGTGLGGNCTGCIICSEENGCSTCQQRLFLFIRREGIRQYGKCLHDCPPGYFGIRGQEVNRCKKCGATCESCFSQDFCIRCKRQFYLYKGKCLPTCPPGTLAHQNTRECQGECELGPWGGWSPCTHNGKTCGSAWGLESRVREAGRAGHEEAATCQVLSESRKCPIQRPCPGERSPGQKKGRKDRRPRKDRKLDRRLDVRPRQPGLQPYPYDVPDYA

[7] = molecular target: T8, FLAG-tagged human RSPO3 (Genentech) (human, UniProt Q9BXY4 22-272); assay: competitive binding ELISA: titrated against biotinylated RNF43-Flag (RNF43-ECD) binding to plate-coated hRSPO3; signal = bound RNF43, normalized OD
T8 construct: also called hRSPO3; RSPO3 coated plates; not shown: FLAG tag
T8 sequence: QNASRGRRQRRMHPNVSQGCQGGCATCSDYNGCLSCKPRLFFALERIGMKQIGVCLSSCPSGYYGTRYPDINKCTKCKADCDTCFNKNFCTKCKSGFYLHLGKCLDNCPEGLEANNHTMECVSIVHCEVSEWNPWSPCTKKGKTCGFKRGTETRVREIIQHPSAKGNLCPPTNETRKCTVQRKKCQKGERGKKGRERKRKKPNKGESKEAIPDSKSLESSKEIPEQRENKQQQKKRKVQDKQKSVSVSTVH

[8] = molecular target: T8, FLAG-tagged human RSPO3 (Genentech); assay: competitive binding ELISA: antibody titrated against LGR4-Fc (LGR4-ECD) binding to plate-coated hRSPO3; signal = bound LGR4-Fc, OD(450/630)/OD no antibody
Outline: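 Plates coated with 0.5 μg/ml hRSPO2 or hRSPO3 at pH 9.6 were incubated 2 h at room temperature with antibody (0.078-10 […] dilutions) plus 0.1 μg/ml LGR4-Fc. Bound LGR4-Fc was detected by HRP anti-human Fc and TMB, with absorbance read at 450 nm.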

Sequence of recombinant human RSPO2 (Q6UXX9 22-243): as the sequence (G7PCH9 entry or part of it) above, with A160V, P165L, A178T counted along it

B1: 5E11 (antibody, V domains shown)
VH: QVQLKQSGPGLVQPSQSLSITCTVSGFSLSSYAVHWVRQSPGEGLEWLGVIWSGGSTDYNAAFISRMSITKDNSKSQVFFKMNSLQADDTAIYFCARNDGYYYFDYWGQGTTLTVSS
VL: DIVMTQSTSSLSASLGDRVTISCRASQDISNYLNWYQQKPDGTVKLLIYYTSRLHSGVPSRFSGSGSGTDYSLTISNLEKEDVATYFCQHGDTLPPTFGGGTKLEIK
notes: also called monoclonal antibody 5E11
IC50, WNT luciferase reporter, bivalent antibody (recombinant human RSPO2): > 500 nM | IC50, WNT luciferase reporter, bivalent antibody (recombinant human RSPO3): 0.09 nM | IC50, WNT luciferase reporter, bivalent antibody (cynomolgus RSPO3): 0.31 nM | IC50, WNT luciferase reporter, bivalent antibody (mouse RSPO3): 0.5 nM | IC50, WNT luciferase reporter, bivalent antibody (cynomolgus RSPO2): > 500 nM | IC50, WNT luciferase reporter, bivalent antibody (mouse RSPO2): > 500 nM | percentage of cells staining [1]: 90% | percentage of cells staining [2]: 20% | percentage of cells staining [3]: 80% | binding result [4]: no binding | binding result [5]: no binding | binding result [6]: no binding | IC50 (read off the curve) [7]: ~0.08 mg/L | IC50 (read off the curve) [8]: ~0.1 mg/L
